Molecular target: human LTβR on A375 cells (human) (UniProt P36941)
Test: cell-based or functional assay

Chain of human LTβR on A375 cells (human) (P36941 31-435): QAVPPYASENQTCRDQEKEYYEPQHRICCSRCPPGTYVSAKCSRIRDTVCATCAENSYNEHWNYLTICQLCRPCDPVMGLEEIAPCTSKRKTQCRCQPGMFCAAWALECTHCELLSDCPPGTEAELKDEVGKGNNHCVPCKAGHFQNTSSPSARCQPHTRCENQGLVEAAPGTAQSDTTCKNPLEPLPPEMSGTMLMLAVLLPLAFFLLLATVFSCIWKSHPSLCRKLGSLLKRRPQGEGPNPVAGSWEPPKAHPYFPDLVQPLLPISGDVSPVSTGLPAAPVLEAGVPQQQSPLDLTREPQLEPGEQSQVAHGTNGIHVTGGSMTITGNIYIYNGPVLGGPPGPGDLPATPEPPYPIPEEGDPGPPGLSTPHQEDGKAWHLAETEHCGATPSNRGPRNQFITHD

IL-8 secretion of A375 cells, EC50 (FIG. 15a): 0.226 nM | IL-8 secretion of A375 cells, EC50 (FIG. 15b): 0.19 nM
Substance: recombinant human LIGHT (R&D systems) (from UniProt O43557 74-240) (ligand)

Reference: patent US20250368754A1
